Data as given in patent US6721663B1, “Method for manipulating protein or DNA sequence data in order to generate complementary peptide ligands” (Proteom Limited, priority 1999, dated 2004).

Key:
IL-1 [1] = molecular target: T1, IL-1 (Homo sapiens, UniProt P01584); test: Serum Amyloid IL-1 assay; format: cell-based; details: FIG. 14
Description: (§1) The program picked out antisense region LITVLNI (SEQ ID No. 8) in the IL-1R receptor.

IL-1 [2] = molecular target: T1, IL-1; test: Direct binding to IL-1 by biosensing techniques
Description: as §1

IL-1b = IL-1b (Homo sapiens, UniProt P01584); test: ESAP assay of IL-1b biological activity; format: cell-based; details: FIG. 14
Sequence of IL-1b (P01584 117-269): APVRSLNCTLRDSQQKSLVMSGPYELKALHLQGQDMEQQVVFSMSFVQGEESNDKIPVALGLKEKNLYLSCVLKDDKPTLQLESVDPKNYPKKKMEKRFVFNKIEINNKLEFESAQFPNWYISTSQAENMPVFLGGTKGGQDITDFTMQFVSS
Description: as §1

T1 sequence (P01584 117-269): as above

| Substance | inhibition of IL-1 activity in Serum Amyloid IL-1 assay (IL-1 [1]) | direct binding to IL-1 (IL-1 [2]) | inhibition of the biological activity of IL-1b in ESAP assay (IL-1b) |
| --- | --- | --- | --- |
| LITVLNI (listed as Homo sapiens) [antisense region in the IL-1R receptor picked out by the ALS program] | The same effect is also seen | bind directly to IL-1 | inhibit the biological activity of IL-1b |
| LTILINV (Hypothetical sequence) [scrambled peptide control of LITVLNI, reference compound] | – | – | The effect is dependent on the peptide sequence |
